Columns and labels:
[1] = molecular target: IscU, FeS cluster assembly scaffold protein (E. coli) (UniProt P0ACD4)
[2] = molecular target: HscB, co-chaperone of HscA (E. coli) (UniProt P0A6L9)
[3] = molecular target: IscA, FeS cluster assembly scaffold protein (E. coli) (UniProt P0AAC8)
IscU (Escherichia coli) = IscU (Escherichia coli) (UniProt P0ACD4); assay: surface plasmon resonance; conditions: cited from earlier work
Chain of IscU (Escherichia coli) (P0ACD4 whole entry): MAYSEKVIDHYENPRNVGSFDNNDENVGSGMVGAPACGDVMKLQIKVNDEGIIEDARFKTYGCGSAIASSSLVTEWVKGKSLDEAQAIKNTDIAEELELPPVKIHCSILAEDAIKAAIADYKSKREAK

Chain of IscU, FeS cluster assembly scaffold protein (E. coli) (P0ACD4 whole entry): as above
Chain of HscA (P0A6Z1 whole entry): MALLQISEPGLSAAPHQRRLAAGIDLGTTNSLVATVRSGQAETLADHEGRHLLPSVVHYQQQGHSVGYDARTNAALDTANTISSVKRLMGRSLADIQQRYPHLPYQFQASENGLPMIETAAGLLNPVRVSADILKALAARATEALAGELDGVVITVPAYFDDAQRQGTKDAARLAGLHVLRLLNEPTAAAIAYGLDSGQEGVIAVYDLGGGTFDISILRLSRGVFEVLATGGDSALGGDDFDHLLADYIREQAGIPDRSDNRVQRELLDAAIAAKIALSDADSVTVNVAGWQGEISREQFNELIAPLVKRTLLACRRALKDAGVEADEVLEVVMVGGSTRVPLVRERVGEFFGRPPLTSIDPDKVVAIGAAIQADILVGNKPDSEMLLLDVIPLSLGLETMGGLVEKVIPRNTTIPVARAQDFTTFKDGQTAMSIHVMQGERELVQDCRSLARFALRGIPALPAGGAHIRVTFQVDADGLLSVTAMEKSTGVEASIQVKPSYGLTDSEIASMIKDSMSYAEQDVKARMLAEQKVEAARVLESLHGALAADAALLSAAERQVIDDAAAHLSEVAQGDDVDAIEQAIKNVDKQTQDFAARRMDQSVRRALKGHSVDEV
Chain of HscB, co-chaperone of HscA (E. coli) (P0A6L9 whole entry): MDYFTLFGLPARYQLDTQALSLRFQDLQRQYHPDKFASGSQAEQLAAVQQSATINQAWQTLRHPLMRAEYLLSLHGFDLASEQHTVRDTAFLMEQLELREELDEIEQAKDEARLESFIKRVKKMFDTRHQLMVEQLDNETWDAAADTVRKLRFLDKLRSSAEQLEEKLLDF
Chain of IscA, FeS cluster assembly scaffold protein (E. coli) (P0AAC8 whole entry): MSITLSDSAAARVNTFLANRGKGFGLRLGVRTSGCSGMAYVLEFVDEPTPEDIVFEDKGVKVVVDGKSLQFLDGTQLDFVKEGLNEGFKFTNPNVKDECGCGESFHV
Chain of Biotin synthase (BioB), cluster state not stated for the experiment (P12996 whole entry): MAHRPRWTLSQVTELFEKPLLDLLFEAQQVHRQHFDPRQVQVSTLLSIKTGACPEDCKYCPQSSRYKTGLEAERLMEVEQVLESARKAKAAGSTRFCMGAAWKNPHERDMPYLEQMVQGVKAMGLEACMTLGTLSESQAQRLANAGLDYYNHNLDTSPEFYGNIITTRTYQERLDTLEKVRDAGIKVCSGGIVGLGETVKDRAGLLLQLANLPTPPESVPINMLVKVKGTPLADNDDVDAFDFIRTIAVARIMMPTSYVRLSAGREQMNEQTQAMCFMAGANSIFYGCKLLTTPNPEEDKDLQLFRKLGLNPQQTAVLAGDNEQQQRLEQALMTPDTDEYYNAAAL

Substance	Kd [1]	Kd [2]	Kd [3]	Kd (IscU (Escherichia coli))
Biotin synthase (BioB), cluster state not stated for the experiment (from UniProt P12996 1-346) (enzyme)	> 10 µM	> 10 µM	> 10 µM	–
HscA (from UniProt P0A6Z1)	–	–	–	9.3 µM

— publication PMC2809015
